Measured values from US20110076693.

B1: Flag-Plk3 (protein)
chain: MEPAAGFLSPRPFQRAAAAPAPPAGPGPPPSALRGPELEMLAGLPTSDPGRLITDPRSGRTYLKGRLLGKGGFARCYEATDTETGSAYAVKVIPQSRVAKPHQREKILNEIELHRDLQHRHIVRFSHHFEDADNIYIFLELCSRKSLAHIWKARHTLLEPEVRYYLRQILSGLKYLHQRGILHRDLKLGNFFITENMELKVGDFGLAARLEPPEQRKKTICGTPNYVAPEVLLRQGHGPEADVWSLGCVMYTLLCGSPPFETADLKETYRCIKQVHYTLPASLSLPARQLLAAILRASPRDRPSIDQILRHDFFTKGYTPDRLPISSCVTVPDLTPPNPARSLFAKVTKSLFGRKKKSKNHAQERDEVSGLVSGLMRTSVGHQDARPEAPAASGPAPVSLVETAPEDSSPRGTLASSGDGFEEGLTVATVVESALCALRNCIAFMPPAEQNPAPLAQPEPLVWVSKWVDYSNKFGFGYQLSSRRVAVLFNDGTHMALSANRKTVHYNPTSTKHFSFSVGAVPRALQPQLGILRYFASYMEQHLMKGGDLPSVEEVEVPAPPLLLQWVKTDQALLMLFSDGTVQVNFYGDHTKLILSGWEPLLVTFVARNRSACTYLASHLRQLGCSPDLRQRLRYALRLLRDRSPA
B2: Flag-Plk2 (protein)
chain: MELLRTITYQPAASTKMCEQALGKGCGADSKKKRPPQPPEESQPPQSQAQVPPAAPHHHHHHSHSGPEISRIIVDPTTGKRYCRGKVLGKGGFAKCYEMTDLTNNKVYAAKIIPHSRVAKPHQREKIDKEIELHRILHHKHVVQFYHYFEDKENIYILLEYCSRRSMAHILKARKVLTEPEVRYYLRQIVSGLKYLHEQEILHRDLKLGNFFINEAMELKVGDFGLAARLEPLEHRRRTICGTPNYLSPEVLNKQGHGCESDIWALGCVMYTMLLGRPPFETTNLKETYRCIREARYTMPSSLLAPAKHLIASMLSKNPEDRPSLDDIIRHDFFLQGFTPDRLSSSCCHTVPDFHLSSPAKNFFKKAAAALFGGKKDKARYIDTHNRVSKEDEDIYKLRHDLKKTSITQQPSKHRTDEELQPPTTTVARSGTPAVENKQQIGDAIRMIVRGTLGSCSSSSECLEDSTMGSVADTVARVLRGCLENMPEADCIPKEQLSTSFQWVTKWVDYSNKYGFGYQLSDHTVGVLFNNGAHMSLLPDKKTVHYYAELGQCSVFPATDAPEQFISQVTVLKYFSHYMEENLMDGGDLPSVTDIRRPRLYLLQWLKSDKALMMLFNDGTFQVNFYHDHTKIIICSQNEEYLLTYINEDRISTTFRLTTLLMSGCSSELKNRMEYALNMLLQRCN

Biological target: GST-PBIPtide-A6 [GST: P08515]

| Protein | in vitro kinase assay of Flag immunoprecipitates, 32P incorporated into GST-PBIPtide-A6 |
| --- | --- |
| B1 | Plk1, but not Plk2 or Plk3, phosphorylates and binds to the T78 motif of PBIPtides |
| B2 | Plk1, but not Plk2 or Plk3, phosphorylates and binds to the T78 motif of PBIPtides |
